Reference: PMC10786891, “Massively parallel profiling of RNA-targeting CRISPR-Cas13d”

B1: target 3 G4C,U7A (mixed)
RNA 1: CACCCGUGCAAAAUUGCAGGGGUCUAAAACGACCUGAAUAUUUCAGAUCAAA
RNA 2: GGGAAUGGAUCCACAUCUACGAAUUCGUUUUUGAUCUGAAAUAUACACGUCUGCAGAUCGGAAGAGCACACGU
B2: target 3 insG 3' of 5,insC 3' of 5 (mixed)
RNA 1: CACCCGUGCAAAAUUGCAGGGGUCUAAAACGACCUGAAUAUUUCAGAUCAAA
RNA 2: GGGAAUGGAUCCACAUCUACGAAUUCGUUUUUGAUCUGAAAUAUUCAGCGGUCUGCAGAUCGGAAGAGCACACGU
B3: target 3 A5U,A11G (mixed)
RNA 1: CACCCGUGCAAAAUUGCAGGGGUCUAAAACGACCUGAAUAUUUCAGAUCAAA
RNA 2: GGGAAUGGAUCCACAUCUACGAAUUCGUUUUUGAUCUGAAGUAUUCUGGUCUGCAGAUCGGAAGAGCACACGU
B4: target 1 A9G,U10C (mixed)
RNA 1: CACCCGUGCAAAAAUGCAGGGGUCUAAAACUGAGCGGAUAACCUCUCUAUGG
RNA 2: GGGAAUGGAUCCACAUCUACGAAUUCGUACCAUAGAGAGGUCGUCCGCUCACCGAGAUCGGAAGAGCACACGU
B5: target 3 U2A,U20C (mixed)
RNA 1: CACCCGUGCAAAAUUGCAGGGGUCUAAAACGACCUGAAUAUUUCAGAUCAAA
RNA 2: GGGAAUGGAUCCACAUCUACGAAUUCGUUUUCGAUCUGAAAUAUUCAGGACUGCAGAUCGGAAGAGCACACGU
B6: target 3 G4U,U21A (mixed)
RNA 1: CACCCGUGCAAAAUUGCAGGGGUCUAAAACGACCUGAAUAUUUCAGAUCAAA
RNA 2: GGGAAUGGAUCCACAUCUACGAAUUCGUUUAUGAUCUGAAAUAUUCAUGUCUGCAGAUCGGAAGAGCACACGU
B7: target 3 insU 3' of 5,insG 3' of 2 (mixed)
RNA 1: CACCCGUGCAAAAUUGCAGGGGUCUAAAACGACCUGAAUAUUUCAGAUCAAA
RNA 2: GGGAAUGGAUCCACAUCUACGAAUUCGUUUUUGAUCUGAAAUAUUCAUGGUGCUGCAGAUCGGAAGAGCACACGU
B8: target 3 C6A,A11C (mixed)
RNA 1: CACCCGUGCAAAAUUGCAGGGGUCUAAAACGACCUGAAUAUUUCAGAUCAAA
RNA 2: GGGAAUGGAUCCACAUCUACGAAUUCGUUUUUGAUCUGAACUAUUAAGGUCUGCAGAUCGGAAGAGCACACGU
B9: target 3 del1,del14 (mixed)
RNA 1: CACCCGUGCAAAAUUGCAGGGGUCUAAAACGACCUGAAUAUUUCAGAUCAAA
RNA 2: GGGAAUGGAUCCACAUCUACGAAUUCGUUUUUGAUCUAAAUAUUCAGGUUGCAGAUCGGAAGAGCACACGU
B10: target 3 insA 3' of 10,insA 3' of 7 (mixed)
RNA 1: CACCCGUGCAAAAUUGCAGGGGUCUAAAACGACCUGAAUAUUUCAGAUCAAA
RNA 2: GGGAAUGGAUCCACAUCUACGAAUUCGUUUUUGAUCUGAAAUAAUUACAGGUCUGCAGAUCGGAAGAGCACACGU
B11: target 3 del6,del8 (mixed)
RNA 1: CACCCGUGCAAAAUUGCAGGGGUCUAAAACGACCUGAAUAUUUCAGAUCAAA
RNA 2: GGGAAUGGAUCCACAUCUACGAAUUCGUUUUUGAUCUGAAAUAUAGGUCUGCAGAUCGGAAGAGCACACGU
B12: target 3 G19U,U22G (mixed)
RNA 1: CACCCGUGCAAAAUUGCAGGGGUCUAAAACGACCUGAAUAUUUCAGAUCAAA
RNA 2: GGGAAUGGAUCCACAUCUACGAAUUCGUUGUUUAUCUGAAAUAUUCAGGUCUGCAGAUCGGAAGAGCACACGU
B13: target 3 del1,del2 (mixed)
RNA 1: CACCCGUGCAAAAUUGCAGGGGUCUAAAACGACCUGAAUAUUUCAGAUCAAA
RNA 2: GGGAAUGGAUCCACAUCUACGAAUUCGUUUUUGAUCUGAAAUAUUCAGGUGCAGAUCGGAAGAGCACACGU
B14: target 1 insC 3' of 16,insC 3' of 14 (mixed)
RNA 1: CACCCGUGCAAAAAUGCAGGGGUCUAAAACUGAGCGGAUAACCUCUCUAUGG
RNA 2: GGGAAUGGAUCCACAUCUACGAAUUCGUACCAUAGACGACGGUUAUCCGCUCACCGAGAUCGGAAGAGCACACGU
B15: target 3 insC 3' of 7,insA 3' of 6 (mixed)
RNA 1: CACCCGUGCAAAAUUGCAGGGGUCUAAAACGACCUGAAUAUUUCAGAUCAAA
RNA 2: GGGAAUGGAUCCACAUCUACGAAUUCGUUUUUGAUCUGAAAUAUUCCAAGGUCUGCAGAUCGGAAGAGCACACGU
B16: target 3 insA 3' of 3,insC 3' of 2 (mixed)
RNA 1: CACCCGUGCAAAAUUGCAGGGGUCUAAAACGACCUGAAUAUUUCAGAUCAAA
RNA 2: GGGAAUGGAUCCACAUCUACGAAUUCGUUUUUGAUCUGAAAUAUUCAGGAUCCUGCAGAUCGGAAGAGCACACGU
B17: target 3 C6U (mixed)
RNA 1: CACCCGUGCAAAAUUGCAGGGGUCUAAAACGACCUGAAUAUUUCAGAUCAAA
RNA 2: GGGAAUGGAUCCACAUCUACGAAUUCGUUUUUGAUCUGAAAUAUUUAGGUCUGCAGAUCGGAAGAGCACACGU
B18: target 3 insC 3' of 4,insA 3' of 1 (mixed)
RNA 1: CACCCGUGCAAAAUUGCAGGGGUCUAAAACGACCUGAAUAUUUCAGAUCAAA
RNA 2: GGGAAUGGAUCCACAUCUACGAAUUCGUUUUUGAUCUGAAAUAUUCAGCGUCAUGCAGAUCGGAAGAGCACACGU
B19: target 3 C1A,G14U (mixed)
RNA 1: CACCCGUGCAAAAUUGCAGGGGUCUAAAACGACCUGAAUAUUUCAGAUCAAA
RNA 2: GGGAAUGGAUCCACAUCUACGAAUUCGUUUUUGAUCUUAAAUAUUCAGGUAUGCAGAUCGGAAGAGCACACGU
B20: target 3 insC 3' of 4,insC 3' of 2 (mixed)
RNA 1: CACCCGUGCAAAAUUGCAGGGGUCUAAAACGACCUGAAUAUUUCAGAUCAAA
RNA 2: GGGAAUGGAUCCACAUCUACGAAUUCGUUUUUGAUCUGAAAUAUUCAGCGUCCUGCAGAUCGGAAGAGCACACGU
B21: target 3 insG 3' of 6,insG 3' of 6 (mixed)
RNA 1: CACCCGUGCAAAAUUGCAGGGGUCUAAAACGACCUGAAUAUUUCAGAUCAAA
RNA 2: GGGAAUGGAUCCACAUCUACGAAUUCGUUUUUGAUCUGAAAUAUUCGGAGGUCUGCAGAUCGGAAGAGCACACGU
B22: target 3 insA 3' of 6,insU 3' of 4 (mixed)
RNA 1: CACCCGUGCAAAAUUGCAGGGGUCUAAAACGACCUGAAUAUUUCAGAUCAAA
RNA 2: GGGAAUGGAUCCACAUCUACGAAUUCGUUUUUGAUCUGAAAUAUUCAAGUGUCUGCAGAUCGGAAGAGCACACGU
B23: target 3 insU 3' of 6,insC 3' of 3 (mixed)
RNA 1: CACCCGUGCAAAAUUGCAGGGGUCUAAAACGACCUGAAUAUUUCAGAUCAAA
RNA 2: GGGAAUGGAUCCACAUCUACGAAUUCGUUUUUGAUCUGAAAUAUUCUAGGCUCUGCAGAUCGGAAGAGCACACGU
B24: target 1 C2U,G12A (mixed)
RNA 1: CACCCGUGCAAAAAUGCAGGGGUCUAAAACUGAGCGGAUAACCUCUCUAUGG
RNA 2: GGGAAUGGAUCCACAUCUACGAAUUCGUACCAUAGAGAGAUUAUCCGCUUACCGAGAUCGGAAGAGCACACGU
B25: target 3 A5G,A11G (mixed)
RNA 1: CACCCGUGCAAAAUUGCAGGGGUCUAAAACGACCUGAAUAUUUCAGAUCAAA
RNA 2: GGGAAUGGAUCCACAUCUACGAAUUCGUUUUUGAUCUGAAGUAUUCGGGUCUGCAGAUCGGAAGAGCACACGU
B26: target 3 insC 3' of 5,insA 3' of 2 (mixed)
RNA 1: CACCCGUGCAAAAUUGCAGGGGUCUAAAACGACCUGAAUAUUUCAGAUCAAA
RNA 2: GGGAAUGGAUCCACAUCUACGAAUUCGUUUUUGAUCUGAAAUAUUCACGGUACUGCAGAUCGGAAGAGCACACGU
B27: target 3 insC 3' of 5,insU 3' of 1 (mixed)
RNA 1: CACCCGUGCAAAAUUGCAGGGGUCUAAAACGACCUGAAUAUUUCAGAUCAAA
RNA 2: GGGAAUGGAUCCACAUCUACGAAUUCGUUUUUGAUCUGAAAUAUUCACGGUCUUGCAGAUCGGAAGAGCACACGU
B28: target 3 insA 3' of 7,insG 3' of 2 (mixed)
RNA 1: CACCCGUGCAAAAUUGCAGGGGUCUAAAACGACCUGAAUAUUUCAGAUCAAA
RNA 2: GGGAAUGGAUCCACAUCUACGAAUUCGUUUUUGAUCUGAAAUAUUACAGGUGCUGCAGAUCGGAAGAGCACACGU

These binders were tested against T1, EsCas13d, nuclease-dead (Eubacterium siraeum, UniProt B0MS50, R295A;H300A;R849A;H854A) (assay: crRNA (strand 1, pre-loaded); Mg2+; 40 mM Tris-HCl pH 7.5, 150 mM NaCl, 6 mM MgCl2, 1 mM DTT, 0.1% Tween-20, 0.2 mg/ml BSA; 25 C; 10 min per concentration, then washed). Conditions: tags: His6-TwinStrep-SUMO cleaved; N-terminal SNAP kept (SNAP-Surface 488); label: 3' end held by stalled T7 RNA polymerase.
T1 sequence: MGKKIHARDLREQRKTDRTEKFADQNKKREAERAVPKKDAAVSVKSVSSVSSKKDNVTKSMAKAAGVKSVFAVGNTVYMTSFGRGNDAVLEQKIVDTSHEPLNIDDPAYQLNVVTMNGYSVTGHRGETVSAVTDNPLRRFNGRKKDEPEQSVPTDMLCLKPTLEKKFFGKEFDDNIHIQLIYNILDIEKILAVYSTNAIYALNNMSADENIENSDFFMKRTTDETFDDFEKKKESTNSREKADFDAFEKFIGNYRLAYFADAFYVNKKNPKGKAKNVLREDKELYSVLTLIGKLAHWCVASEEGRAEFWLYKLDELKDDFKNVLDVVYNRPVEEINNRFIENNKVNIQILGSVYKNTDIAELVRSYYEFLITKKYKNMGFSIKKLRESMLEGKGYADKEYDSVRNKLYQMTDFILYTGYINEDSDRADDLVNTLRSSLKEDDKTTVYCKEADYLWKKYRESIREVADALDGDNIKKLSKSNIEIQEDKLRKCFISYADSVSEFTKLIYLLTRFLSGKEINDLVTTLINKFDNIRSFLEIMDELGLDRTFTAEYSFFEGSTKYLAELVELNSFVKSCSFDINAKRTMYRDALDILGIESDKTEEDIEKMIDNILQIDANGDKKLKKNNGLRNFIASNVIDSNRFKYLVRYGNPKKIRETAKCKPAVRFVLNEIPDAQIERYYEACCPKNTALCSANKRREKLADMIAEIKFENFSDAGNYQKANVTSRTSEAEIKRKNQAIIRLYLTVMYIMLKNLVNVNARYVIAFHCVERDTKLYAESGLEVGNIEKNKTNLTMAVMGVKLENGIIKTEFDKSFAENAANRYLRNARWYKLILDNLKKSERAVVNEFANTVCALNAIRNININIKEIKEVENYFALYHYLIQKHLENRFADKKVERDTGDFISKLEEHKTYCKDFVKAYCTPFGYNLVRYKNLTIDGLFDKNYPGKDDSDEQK
For B1, the Kd was 27.6 ± 3.05 nM.
B2 showed a Kd of 32.7 ± 4.05 nM.
B3 showed a Kd of 100 ± 45 nM.
For B4, the Kd was 27.2 ± 1.4 nM.
B5 gave a Kd of 74.5 ± 24 nM.
B6 gave a Kd of 20.6 ± 2.15 nM.
For B7, the Kd was 6.95 ± 1 nM.
Work on B8 yielded a Kd of 45.2 ± 11.2 nM.
For B9, the Kd was 110 ± 55 nM.
Binder B10 has a Kd of 52 ± 8 nM.
B11 was tested, and the Kd was 70.5 ± 11 nM.
B12 showed a Kd of 108 ± 15 nM.
In the case of B13, the Kd is reported as 44.5 ± 2.55 nM.
For B14, the Kd was 75 ± 19 nM.
With B15 the Kd was 76 ± 14 nM.
Work on B16 yielded a Kd of 120 ± 50 nM.
B17 was tested, and the Kd was 13.2 ± 1.05 nM.
In the case of B18, the Kd is reported as 69.5 ± 28.5 nM.
With B19 the Kd was 79 ± 30.5 nM.
B20 was tested, and the Kd was 73 ± 24 nM.
B21 was tested, and the Kd was 23.6 ± 3.2 nM.
B22 was tested, and the Kd was 2.25 ± 0.23 nM.
Binder B23 has a Kd of 28.6 ± 2.95 nM.
B24 showed a Kd of 4.5 ± 0.14 nM.
B25 was tested, and the Kd was 73.5 ± 28.5 nM.
Binder B26 has a Kd of 15.8 ± 1.6 nM.
B27 showed a Kd of 10.8 ± 1.25 nM.
Binder B28 has a Kd of 28.2 ± 4.15 nM.
